Experimental findings from US20180236031A1 are described below.

The experiment concerns the target high-affinity TrkA receptor on the TF-1 cell surface (UniProt P04629). The experiment is described as follows: cell-based or functional assay.
Sequence of UniProt P04629 (P04629 33-796 limits assumed): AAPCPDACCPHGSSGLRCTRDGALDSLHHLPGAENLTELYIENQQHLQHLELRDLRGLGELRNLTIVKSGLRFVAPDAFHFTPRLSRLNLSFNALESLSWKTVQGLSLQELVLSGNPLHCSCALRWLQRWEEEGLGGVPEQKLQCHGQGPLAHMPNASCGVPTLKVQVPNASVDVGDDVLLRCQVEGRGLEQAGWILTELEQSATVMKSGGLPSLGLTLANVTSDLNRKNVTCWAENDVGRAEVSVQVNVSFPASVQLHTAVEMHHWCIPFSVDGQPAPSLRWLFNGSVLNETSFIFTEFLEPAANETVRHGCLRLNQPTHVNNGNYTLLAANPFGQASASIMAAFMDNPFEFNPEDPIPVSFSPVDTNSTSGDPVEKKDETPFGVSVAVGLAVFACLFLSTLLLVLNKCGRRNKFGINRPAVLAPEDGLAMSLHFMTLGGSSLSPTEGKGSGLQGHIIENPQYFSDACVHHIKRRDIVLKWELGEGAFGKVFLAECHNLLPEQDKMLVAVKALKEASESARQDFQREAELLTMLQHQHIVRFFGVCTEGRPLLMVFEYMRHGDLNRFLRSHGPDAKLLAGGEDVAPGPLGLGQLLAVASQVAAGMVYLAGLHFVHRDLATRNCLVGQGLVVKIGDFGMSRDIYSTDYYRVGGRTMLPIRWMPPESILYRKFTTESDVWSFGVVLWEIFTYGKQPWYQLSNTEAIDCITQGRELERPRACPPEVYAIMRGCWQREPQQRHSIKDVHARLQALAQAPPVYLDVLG

Regarding “rhNGF-CTP (long-lasting recombinant human nerve growth factor; mature NGF-CTP) (ligand)”, the specific activity in the TF-1 cell proliferation assay (MTT) worked out at 1.2e+06 AU mg^-1.
